# Test results as given in patent US20260193376A1 (Novo Nordisk, published 2026).
# Numbering of substitutions follows the chain as printed.
# B1: one-armed (OA) mAb01-9986 (antibody, V domains shown)
# VH: EVQLVESGGGLVQPGRSLRLSCAASGFTFHDYAMHWVRQVPGKGLEWVSGISWRGDIGGYVKSVKGRFTISRDNAKNSLYLQMNSLRAEDTALYYCVKSYGSGSFYNAFDSWGQGTLVTVSS
# VL: DIQMTQSPSTLSASVGDRVTITCRASQSISSWLAWYQQKPGKAPKFLIYKASRLERGTPSRFSGSGSGTEFSLTISSLQPDDFATYYCLEYSSYIRTFGQGTKVEIK
# B2: one-armed (OA) mAb01-9373 (antibody, V domains shown)
# VH: B1 VH with R19K, G58I, K62D, M83L
# VL: B1 VL with V15A, R18E, Q27K, K45R, E55D, S72T, S77H
# B3: one-armed (OA) mAb11-1273 (antibody, V domains shown)
# VH: B1 VH with R54K, K62D, A75E
# VL: B1 VL with E55D, S77E
# B4: one-armed (OA) mAb11-0938 (antibody, V domains shown)
# VH: B1 VH with R54K, K62D, A75E
# VL: B1 VL with E55D, T58V
# B5: one-armed (OA) mAb11-1254 (antibody, V domains shown)
# VH: B1 VH with R54K, K62D, A75D
# VL: B1 VL with E55D
# B6: one-armed (OA) mAb11-0164 (antibody, V domains shown)
# VH: B1 VH with R19K, T28R, H30D, R54K, V61A, K62D, M83L
# VL: B1 VL
# B7: one-armed (OA) mAb11-1091 (antibody, V domains shown)
# VH: B1 VH with R19K, R54K, K62D, V97A
# VL: B1 VL with R53K, E55D, S72T
# B8: one-armed (OA) mAb11-1030 (antibody, V domains shown)
# VH: B1 VH with G26K, R54K, K62D, V97A
# VL: B1 VL with R53K, E55D, S72T
# B9: one-armed (OA) mAb11-0962 (antibody, V domains shown)
# VH: B1 VH with G26K, V40A, R54K, V61A, K62D, V97A
# VL: B1 VL with R53K, E55D, S72T
# B10: one-armed (OA) mAb11-0965 (antibody, V domains shown)
# VH: B1 VH with G26K, V40A, R54K, V61A, K62D, V97A
# VL: B1 VL with R53K, S72T
# B11: one-armed (OA) mAb11-1076 (antibody, V domains shown)
# VH: B1 VH with R54K, K62D, V97A
# VL: B1 VL with R53K, S72T
# B12: one-armed (OA) mAb11-1268 (antibody, V domains shown)
# VH: B1 VH with R54K, K62D, A75E
# VL: B1 VL with E55D, S60K
# B13: one-armed (OA) mAb11-1260 (antibody, V domains shown)
# VH: B1 VH with R54K, K62D, A75E
# VL: B1 VL with S28Q, E55D
# B14: one-armed (OA) mAb11-1275 (antibody, V domains shown)
# VH: B1 VH with R54K, K62D, A75E
# VL: B1 VL with E55D, Q79T
# B15: one-armed (OA) mAb11-1094 (antibody, V domains shown)
# VH: B1 VH with R19K, R54K, K62D, V97A
# VL: B1 VL with R53K, S72T
# B16: one-armed (OA) mAb11-0929 (antibody, V domains shown)
# VH: B1 VH with R54K, K62D, A75E
# VL: B1 VL with E55D, T58I
# B17: one-armed (OA) mAb11-1024 (antibody, V domains shown)
# VH: B1 VH with G26K, V40A, R54K, K62D, V97A
# VL: B1 VL with R53K, S72T
# B18: one-armed (OA) mAb11-0937 (antibody, V domains shown)
# VH: B1 VH with R54K, K62D, A75E
# VL: B1 VL with E55D, T58S
# B19: one-armed (OA) mAb01-9016 (antibody, V domains shown)
# VH: B1 VH with R19K, H30D, K62D, M83L
# VL: B1 VL with V15A, T58V
# B20: one-armed (OA) mAb11-0723 (antibody, V domains shown)
# VH: B1 VH with R19K, H30D, R54K, K62D, M83L, V97A
# VL: B1 VL with V15A, E55D
# B21: one-armed (OA) mAb11-0935 (antibody, V domains shown)
# VH: B1 VH with R54K, K62D, A75E
# VL: B1 VL with E55D, T58Q
# B22: one-armed (OA) mAb11-0939 (antibody, V domains shown)
# VH: B1 VH with R54K, K62D, A75E
# VL: B1 VL with E55D, T58W
# B23: one-armed (OA) mAb11-0160 (antibody, V domains shown)
# VH: B1 VH with R19K, T28R, H30D, R54K, V61A, K62D, M83L
# VL: B1 VL with R18E, Q27K, K45R, S60Q, S72T, S76Y
# B24: one-armed (OA) mAb11-1039 (antibody, V domains shown)
# VH: B1 VH with R19K, G26K, V40A, R54K, K62D, V97A
# VL: B1 VL with R53K, E55D, S72T
# B25: one-armed (OA) mAb11-0931 (antibody, V domains shown)
# VH: B1 VH with R54K, K62D, A75E
# VL: B1 VL with E55D, T58L
# B26: one-armed (OA) mAb11-1259 (antibody, V domains shown)
# VH: B1 VH with R54K, K62D, A75E
# VL: B1 VL with S28K, E55D
# B27: one-armed (OA) mAb11-0047 (antibody, V domains shown)
# VH: B1 VH with V40A, G58K, K62D, M83L, V97A
# VL: B1 VL with V15A, Q27K, E55D, S60Q
# B28: one-armed (OA) mAb11-0932 (antibody, V domains shown)
# VH: B1 VH with R54K, K62D, A75E
# VL: B1 VL with E55D, T58M
# B29: one-armed (OA) mAb11-1266 (antibody, V domains shown)
# VH: B1 VH with R54K, K62D, A75E
# VL: B1 VL with E55D, R56K
# B30: one-armed (OA) mAb11-0107 (antibody, V domains shown)
# VH: B1 VH with R19K, M83L
# VL: B1 VL with R18E, S52Q, E55D, S60Q, S72T
# B31: one-armed (OA) mAb11-1021 (antibody, V domains shown)
# VH: B1 VH with G26K, V40A, R54K, K62D, V97A
# VL: B1 VL with R53K, E55D, S72T
# B32: one-armed (OA) mAb11-1204 (antibody, V domains shown)
# VH: B1 VH
# VL: B1 VL with R18E, R53K
# B33: one-armed (OA) mAb11-0933 (antibody, V domains shown)
# VH: B1 VH with R54K, K62D, A75E
# VL: B1 VL with E55D, T58N
# B34: one-armed (OA) mAb11-0049 (antibody, V domains shown)
# VH: B1 VH with V40A, G58K, K62D, M83L, V97A
# VL: B1 VL with V15A, T22S, F46L, E55D, S72T, S92N
# B35: one-armed (OA) mAb11-0923 (antibody, V domains shown)
# VH: B1 VH with R54K, K62D, A75E
# VL: B1 VL with E55D, T58C
# B36: one-armed (OA) mAb11-0173 (antibody, V domains shown)
# VH: B1 VH with V40A, R54K, K62D, V97A
# VL: B1 VL with R53K, E55D, S72T
# B37: one-armed (OA) mAb01-9696 (antibody, V domains shown)
# VH: B1 VH with R19K, H30D, K62D, M83L
# VL: B1 VL with V15A, E55D
# B38: one-armed (OA) mAb11-1262 (antibody, V domains shown)
# VH: B1 VH with R54K, K62D, A75E
# VL: B1 VL with S30Q, E55D
# B39: one-armed (OA) mAb11-0174 (antibody, V domains shown)
# VH: B1 VH with R19K, V40A, R54K, K62D, V97A
# VL: B1 VL with R53K, E55D, S72T
# B40: one-armed (OA) mAb11-1033 (antibody, V domains shown)
# VH: B1 VH with G26K, R54K, K62D, V97A
# VL: B1 VL with R53K, S72T
# B41: one-armed (OA) mAb11-1073 (antibody, V domains shown)
# VH: B1 VH with R54K, K62D, V97A
# VL: B1 VL with R53K, E55D, S72T
# B42: one-armed (OA) mAb11-1042 (antibody, V domains shown)
# VH: B1 VH with R19K, G26K, V40A, R54K, K62D, V97A
# VL: B1 VL with R53K, S72T
# B43: one-armed (OA) mAb11-0149 (antibody, V domains shown)
# VH: B1 VH with R19K, H30D, V40A, R54K, K62D
# VL: B1 VL with V15A, R18E, S30K, E55D, S60Q, S77R
# B44: one-armed (OA) mAb11-1233 (antibody, V domains shown)
# VH: B1 VH with T28K, R54K, K62D, A75E
# VL: B1 VL with E55D
# Target: human plasma-derived Factor IXa (human, UniProt P00740 47-191; P00740 227-461)
# Sequence (P00740 47-191, chain 1 of 2): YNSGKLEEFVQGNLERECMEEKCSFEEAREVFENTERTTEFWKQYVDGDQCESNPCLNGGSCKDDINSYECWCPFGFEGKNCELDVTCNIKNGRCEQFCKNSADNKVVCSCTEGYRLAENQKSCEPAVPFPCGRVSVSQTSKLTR
# Sequence (P00740 227-461, chain 2 of 2): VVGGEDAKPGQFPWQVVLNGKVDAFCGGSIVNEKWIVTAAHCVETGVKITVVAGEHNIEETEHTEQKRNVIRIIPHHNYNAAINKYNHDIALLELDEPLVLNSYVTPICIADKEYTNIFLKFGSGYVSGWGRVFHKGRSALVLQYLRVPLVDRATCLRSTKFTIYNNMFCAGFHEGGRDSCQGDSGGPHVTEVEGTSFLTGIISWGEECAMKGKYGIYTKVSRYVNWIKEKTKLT
# Assay: cell-based or functional assay
"Stimulation Index, FXa generation assay, 800 nM OA antibody [fold]","Stimulation Index, FXa generation assay, 1600 nM OA antibody [fold]","Stimulation Index, FXa generation assay, 760 nM OA antibody [fold]",Binder
5820,–,–,B1
–,1390,–,B2
1540,–,–,B3
1820,–,–,B4
–,–,1890,B5
3270,–,–,B6
5400,–,–,B7
5750,–,–,B8
3370,–,–,B9
2860,–,–,B10
3590,–,–,B11
1800,–,–,B12
1760,–,–,B13
1840,–,–,B14
4080,–,–,B15
1560,–,–,B16
3650,–,–,B17
2680,–,–,B18
–,5900,–,B19
3770,–,–,B20
1570,–,–,B21
2010,–,–,B22

"Stimulation Index, FXa generation assay, 800 nM OA antibody [fold]","Stimulation Index, FXa generation assay, 1600 nM OA antibody [fold]","Stimulation Index, FXa generation assay, 760 nM OA antibody [fold]",Binder
4550,–,–,B23
3960,–,–,B24
1880,–,–,B25
2000,–,–,B26
2860,–,–,B27
1690,–,–,B28
1700,–,–,B29
3260,–,–,B30
4650,–,–,B31
–,9100,–,B32
1610,–,–,B33
1510,–,–,B34
2820,–,–,B35
–,8480,–,B36
–,5170,–,B37
1950,–,–,B38
3690,–,–,B39
5130,–,–,B40
6150,–,–,B41
4320,–,–,B42
3320,–,–,B43
1700,–,–,B44
